Residue numbers refer to the chain shown, from its start. In names and notes the source's numbering stands. Read-outs that look alike come from different tables or passages of the source. One block for each binder: values may come before it.
Assays:
chicken FANCD2 = chicken FANCD2 (chicken, UniProt Q68Y81 1-1439); experiment: SEC
[1] = biological target: His6-tagged FANCD2 complexed with FANCI (chicken, UniProt Q68Y81 1-1439; B0I564 1-1338); experiment: pull-down
[2] = biological target: His6-tagged chicken FANCD2 (chicken, UniProt Q68Y81 1-1439); experiment: pull-down
Chain of His6-tagged chicken FANCD2 (Q68Y81 whole entry): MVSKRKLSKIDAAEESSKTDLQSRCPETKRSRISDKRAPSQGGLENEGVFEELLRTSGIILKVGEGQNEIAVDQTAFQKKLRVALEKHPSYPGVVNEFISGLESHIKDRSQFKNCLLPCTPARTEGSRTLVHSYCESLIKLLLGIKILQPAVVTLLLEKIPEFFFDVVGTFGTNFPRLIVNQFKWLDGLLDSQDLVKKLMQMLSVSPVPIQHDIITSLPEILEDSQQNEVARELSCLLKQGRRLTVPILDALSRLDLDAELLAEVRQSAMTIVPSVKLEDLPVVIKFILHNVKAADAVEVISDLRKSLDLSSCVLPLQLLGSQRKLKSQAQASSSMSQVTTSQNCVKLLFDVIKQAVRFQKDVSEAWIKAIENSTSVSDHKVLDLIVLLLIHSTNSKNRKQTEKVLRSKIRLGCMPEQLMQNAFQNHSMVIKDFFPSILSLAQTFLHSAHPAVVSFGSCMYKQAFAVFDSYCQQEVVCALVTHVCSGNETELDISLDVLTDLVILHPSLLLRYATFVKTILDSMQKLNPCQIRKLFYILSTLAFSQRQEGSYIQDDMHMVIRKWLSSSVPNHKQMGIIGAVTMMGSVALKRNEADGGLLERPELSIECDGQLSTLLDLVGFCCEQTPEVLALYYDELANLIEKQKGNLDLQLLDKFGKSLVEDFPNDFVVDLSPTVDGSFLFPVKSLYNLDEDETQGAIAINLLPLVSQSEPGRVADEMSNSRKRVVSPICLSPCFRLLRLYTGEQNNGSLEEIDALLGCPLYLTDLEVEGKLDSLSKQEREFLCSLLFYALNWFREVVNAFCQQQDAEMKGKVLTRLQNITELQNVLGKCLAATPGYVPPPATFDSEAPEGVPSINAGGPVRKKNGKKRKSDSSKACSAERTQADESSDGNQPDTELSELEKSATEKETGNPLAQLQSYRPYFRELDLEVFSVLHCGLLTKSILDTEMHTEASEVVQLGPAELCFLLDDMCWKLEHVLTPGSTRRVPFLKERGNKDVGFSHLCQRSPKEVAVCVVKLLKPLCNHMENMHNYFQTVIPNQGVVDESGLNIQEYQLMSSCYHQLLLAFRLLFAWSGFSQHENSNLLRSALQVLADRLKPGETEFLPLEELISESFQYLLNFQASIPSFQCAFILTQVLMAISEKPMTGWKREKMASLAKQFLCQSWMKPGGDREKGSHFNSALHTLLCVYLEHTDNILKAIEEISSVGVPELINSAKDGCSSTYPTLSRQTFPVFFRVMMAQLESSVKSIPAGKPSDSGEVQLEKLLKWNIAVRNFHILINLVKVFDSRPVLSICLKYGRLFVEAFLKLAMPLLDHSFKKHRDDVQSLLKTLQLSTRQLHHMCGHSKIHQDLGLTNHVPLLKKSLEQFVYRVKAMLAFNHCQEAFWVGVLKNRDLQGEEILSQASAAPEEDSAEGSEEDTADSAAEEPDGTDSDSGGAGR

[3] = biological target: T1, His6-tagged chicken FANCI (chicken, UniProt B0I564 1-1338); experiment: pull-down
T1 sequence (looked up): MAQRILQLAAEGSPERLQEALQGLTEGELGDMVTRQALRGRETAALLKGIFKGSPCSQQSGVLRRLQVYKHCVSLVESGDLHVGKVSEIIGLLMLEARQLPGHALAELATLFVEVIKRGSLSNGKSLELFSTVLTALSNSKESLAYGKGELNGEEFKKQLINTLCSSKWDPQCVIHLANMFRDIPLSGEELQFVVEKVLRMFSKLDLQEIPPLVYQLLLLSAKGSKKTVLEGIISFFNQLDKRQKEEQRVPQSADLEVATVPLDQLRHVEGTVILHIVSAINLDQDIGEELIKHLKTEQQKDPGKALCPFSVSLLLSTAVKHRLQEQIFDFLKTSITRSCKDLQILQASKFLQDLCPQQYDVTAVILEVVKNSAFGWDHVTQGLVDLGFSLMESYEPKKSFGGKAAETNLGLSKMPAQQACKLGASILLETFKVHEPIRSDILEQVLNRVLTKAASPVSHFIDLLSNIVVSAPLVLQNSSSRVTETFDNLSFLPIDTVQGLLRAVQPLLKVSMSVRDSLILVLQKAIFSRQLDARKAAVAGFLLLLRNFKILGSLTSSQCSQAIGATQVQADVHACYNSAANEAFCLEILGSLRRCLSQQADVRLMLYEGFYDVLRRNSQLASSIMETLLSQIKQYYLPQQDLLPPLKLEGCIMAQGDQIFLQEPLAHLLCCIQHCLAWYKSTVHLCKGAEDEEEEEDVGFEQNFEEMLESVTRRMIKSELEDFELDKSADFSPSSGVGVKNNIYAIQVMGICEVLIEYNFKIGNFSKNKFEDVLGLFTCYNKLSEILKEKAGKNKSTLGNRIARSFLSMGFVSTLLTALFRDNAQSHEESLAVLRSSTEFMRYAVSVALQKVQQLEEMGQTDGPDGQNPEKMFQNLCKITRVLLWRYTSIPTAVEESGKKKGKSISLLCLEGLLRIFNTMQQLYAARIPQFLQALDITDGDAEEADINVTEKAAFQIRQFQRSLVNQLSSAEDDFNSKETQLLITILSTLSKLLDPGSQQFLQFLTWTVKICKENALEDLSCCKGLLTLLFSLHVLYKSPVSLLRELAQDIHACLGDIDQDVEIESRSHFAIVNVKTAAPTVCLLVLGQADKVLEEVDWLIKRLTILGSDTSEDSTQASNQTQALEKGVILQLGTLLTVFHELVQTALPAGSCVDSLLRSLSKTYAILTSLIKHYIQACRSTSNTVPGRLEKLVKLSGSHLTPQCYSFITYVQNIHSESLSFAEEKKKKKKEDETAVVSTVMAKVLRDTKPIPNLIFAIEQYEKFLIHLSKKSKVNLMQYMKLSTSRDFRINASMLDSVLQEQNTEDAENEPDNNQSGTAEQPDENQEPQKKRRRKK

[4] = biological target: T2, FANCI-FANCD2 (I-D) complex (chicken, UniProt B0I564 1-1338; Q68Y81 1-1439); experiment: pull-down
T2 sequence (Q68Y81 whole entry, one chain of several): as the sequence (Q68Y81 whole entry) above

[5] = biological target: T2, FANCI-FANCD2 (I-D) complex; experiment: pull-down; remark: listed apart in the source

Chain of His6-tagged FANCD2 complexed with FANCI (Q68Y81 whole entry, one chain of several): as the sequence (Q68Y81 whole entry) above
Chain of chicken FANCD2 (Q68Y81 whole entry): as the sequence (Q68Y81 whole entry) above

- binding result (chicken FANCD2): binds
B1: chicken FANCI (natural protein, UniProt B0I564 1-1338, looked up)
chain: T1 sequence (looked up)

- binding result [1]: binds
- binding result [2]: binds
- binding result [3]: binds
- binding result [4]: binds
B2: chicken RAD51 (natural protein, UniProt P37383 1-339, looked up)
chain: MAMQVQFEASTDTSAEEESFGPEPISRLEQCGINANDVKKLEEAGYHTVESVAHAPKKELLNIKGISEAKADKILAEAAKLVPMGFTTATEFHQRRSEIIQITTGSKELDKLLQGGIETGSITELFGEFRTGKTQLCHTLAVTCQLPIDRGGGEGKAMYIDTEGTFRPERLLAVAERYGLSGSDVLDNVAYARGFNTDHQTQLLYQASAMMAESRYALLIVDSATALYRTDYSGRGELSARQMHLARFLRMLLRLADEFGVAVVITNQVVAQVDGAAMFAADPKKPIGGNIIAHASTTRLYLRKGRGETRICKIYDSPCLPEAEAMFAINADGVGDAKE

- binding result [5]: binds
B3: His6-tagged chicken RAD51 (natural protein, UniProt P37383 1-339, looked up)
chain: B2 chain

- binding result [5]: binds
B4: His6-tagged chicken RAD51 F86E mutant (natural protein, UniProt P37383 1-339, looked up)
chain: B2 chain with F86E

Source: paper PMC5159555 (Nucleic Acids Research, 2016)
